These results are taken from paper PMC2873105 (Virology, 2010).

This series concerns the molecule itself. As to the kind of experiment: native gel or EMSA. (In general: Mobility shift assays separate free from complexed probe on a gel.)

B1: MBP-Rep78 (adeno-associated virus type 2 Rep78 fused to MBP) (enzyme)
chain: MPGFYEIVIKVPSDLDGHLPGISDSFVNWVAEKEWELPPDSDMDLNLIEQAPLTVAEKLQRDFLTEWRRVSKAPEALFFVQFEKGESYFHMHVLVETTGVKSMVLGRFLSQIREKLIQRIYRGIEPTLPNWFAVTKTRNGAGGGNKVVDECYIPNYLLPKTQPELQWAWTNMEQYLSACLNLTERKRLVAQHLTHVSQTQEQNKENQNPNSDAPVIRSKTSARYMELVGWLVDKGITSEKQWIQEDQASYISFNAASNSRSQIKAALDNAGKIMSLTKTAPDYLVGQQPVEDISSNRIYKILELNGYDPQYAASVFLGWATKKFGKRNTIWLFGPATTGKTNIAEAIAHTVPFYGCVNWTNENFPFNDCVDKMVIWWEEGKMTAKVVESAKAILGGSKVRVDQKCKSSAQIDPTPVIVTSNTNMCAVIDGNSTTFEHQQPLQDRMFKFELTRRLDHDFGKVTKQEVKDFFRWAKDHVVEVEHEFYVKKGGAKKRPAPSDADISEPKRVRESVAQPSTSDAEASINYADRYQNKCSRHVGMNLMLFPCRQCERMNQNSNICFTHGQKDCLECFPVSESQPVSVVKKAYQKLCYIHHIMGKVPDACTACDLVNVDLDDCIFEQ
For B1, the binding result was “binds”.
